According to patent US20240255495 (UNIVERSITY OF PITTSBURGH-OF THE COMMONWEALTH SYSTEM OF …, published 2024):

T1: PTK7 (protein tyrosine kinase 7), recombinant (UniProt Q13308 Q13308:31-704)
T1 sequence: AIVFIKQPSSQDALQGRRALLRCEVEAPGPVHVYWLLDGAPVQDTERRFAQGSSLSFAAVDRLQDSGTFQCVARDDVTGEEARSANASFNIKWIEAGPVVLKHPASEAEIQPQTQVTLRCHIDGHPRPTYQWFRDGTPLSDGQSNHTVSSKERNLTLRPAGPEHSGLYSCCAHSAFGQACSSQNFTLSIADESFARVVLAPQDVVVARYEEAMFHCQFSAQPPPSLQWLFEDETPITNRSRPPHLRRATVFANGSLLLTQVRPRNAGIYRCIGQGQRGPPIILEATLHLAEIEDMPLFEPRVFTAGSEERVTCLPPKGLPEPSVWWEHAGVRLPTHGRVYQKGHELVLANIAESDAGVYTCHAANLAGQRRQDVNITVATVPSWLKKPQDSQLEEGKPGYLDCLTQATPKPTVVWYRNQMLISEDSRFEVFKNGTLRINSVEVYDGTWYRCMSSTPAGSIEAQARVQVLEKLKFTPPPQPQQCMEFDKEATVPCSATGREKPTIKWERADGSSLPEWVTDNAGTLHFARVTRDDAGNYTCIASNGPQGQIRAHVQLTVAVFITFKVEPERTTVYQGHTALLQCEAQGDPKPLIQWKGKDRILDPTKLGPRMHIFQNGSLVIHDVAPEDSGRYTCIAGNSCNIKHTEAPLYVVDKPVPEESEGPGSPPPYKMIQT


Key:
[1] = biological target: T1, PTK7 (protein tyrosine kinase 7), …
thrombin = thrombin (UniProt P00734;P00734 P00734:328-363,P00734:364-622); test: FP

Binder	binding result [1]	Kd (thrombin)
ATCTAACTGCTGCGCCGCCGGGAAAATACTGTACGGTTAGA (ssDNA, T27 conjugated to pyridinium oxime catalyst PyOx) [sgc8c(27)-PyOx]	binds	–
GGTTGGTGTGGTTGG (ssDNA) [TBA unmodified]	–	220 nM
